Experimental data: PMC10540216, “Activity Guided Azide-methyllysine Photo-trapping for Substrate Profiling of Lysine Demethylases” (Journal of the American Chemical Society, 2023)

Tested on: KDM4A-I71AzF
Assay: CASI: photo-crosslinking with HEK293T cell extracts, StrepTactin enrichment and LC-MS/MS proteomics;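 further: lysates from HEK293T cells pretreated with a KDM4 inhibitor to raise proteome methylation, affinity-purified after ±UV, gel-resolved, trypsin-digested, with exclusive unique peptides per protein averaged per condition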
Type: binding, human
Settings: sheet "Final results but with 0.01"

Row | Molecule | Fold change (+UV/-UV)
1 | PABP4_HUMAN (protein, UniProt Q13310 1-644, looked up) Polyadenylate-binding protein …: MNAAASSYPMASLYVGDLHSDVTEAMLYEKFSPAGPVLSIRVCRDMITRRSLGYAYVNFQQPADAERALDTMNFDVIKGKPIRIMWSQRDPSLRKSGVGNVFIKNLDKSIDNKALYDTFSAFGNILSCKVVCDENGSKGYAFVHFETQEAADKAIEKMNGMLLNDRKVFVGRFKSRKEREAELGAKAKEFTNVYIKNFGEEVDDESLKELFSQFGKTLSVKVMRDPNGKSKGFGFVSYEKHEDANKAVEEMNGKEISGKIIFVGRAQKKVERQAELKRKFEQLKQERISRYQGVNLYIKNLDDTIDDEKLRKEFSPFGSITSAKVMLEDGRSKGFGFVCFSSPEEATKAVTEMNGRIVGSKPLYVALAQRKEERKAHLTNQYMQRVAGMRALPANAILNQFQPAAGGYFVPAVPQAQGRPPYYTPNQLAQMRPNPRWQQGGRPQGFQGMPSAIRQSGPRPTLRHLAPTGSECPDRLAMDFGGAGAAQQGLTDSCQSGGVPTAVQNLAPRAAVAAAAPRAVAPYKYASSVRSPHPAIQPLQAPQPAVHVQGQEPLTASMLAAAPPQEQKQMLGERLFPLIQTMHSNLAGKITGMLLEIDNSELLHMLESPESLRSKVDEAVAVLQAHHAKKEAAQKVGAVAAATS | 0
2 | ZYX_HUMAN (protein, UniProt Q15942 2-572, looked up) Zyxin: AAPRPSPAISVSVSAPAFYAPQKKFGPVVAPKPKVNPFRPGDSEPPPAPGAQRAQMGRVGEIPPPPPEDFPLPPPPLAGDGDDAEGALGGAFPPPPPPIEESFPPAPLEEEIFPSPPPPPEEEGGPEAPIPPPPQPREKVSSIDLEIDSLSSLLDDMTKNDPFKARVSSGYVPPPVATPFSSKSSTKPAAGGTAPLPPWKSPSSSQPLPQVPAPAQSQTQFHVQPQPQPKPQVQLHVQSQTQPVSLANTQPRGPPASSPAPAPKFSPVTPKFTPVASKFSPGAPGGSGSQPNQKLGHPEALSAGTGSPQPPSFTYAQQREKPRVQEKQHPVPPPAQNQNQVRSPGAPGPLTLKEVEELEQLTQQLMQDMEHPQRQNVAVNELCGRCHQPLARAQPAVRALGQLFHIACFTCHQCAQQLQGQQFYSLEGAPYCEGCYTDTLEKCNTCGEPITDRMLRATGKAYHPHCFTCVVCARPLEGTSFIVDQANRPHCVPDYHKQYAPRCSVCSEPIMPEPGRDETVRVVALDKNFHMKCYKCEDCGKPLSIEADDNGCFPLDGHVLCRKCHTARAQT | 0
3 | DDX1_HUMAN (protein, UniProt Q92499 1-740, looked up) ATP-dependent RNA helicase …: MAAFSEMGVMPEIAQAVEEMDWLLPTDIQAESIPLILGGGDVLMAAETGSGKTGAFSIPVIQIVYETLKDQQEGKKGKTTIKTGASVLNKWQMNPYDRGSAFAIGSDGLCCQSREVKEWHGCRATKGLMKGKHYYEVSCHDQGLCRVGWSTMQASLDLGTDKFGFGFGGTGKKSHNKQFDNYGEEFTMHDTIGCYLDIDKGHVKFSKNGKDLGLAFEIPPHMKNQALFPACVLKNAELKFNFGEEEFKFPPKDGFVALSKAPDGYIVKSQHSGNAQVTQTKFLPNAPKALIVEPSRELAEQTLNNIKQFKKYIDNPKLRELLIIGGVAARDQLSVLENGVDIVVGTPGRLDDLVSTGKLNLSQVRFLVLDEADGLLSQGYSDFINRMHNQIPQVTSDGKRLQVIVCSATLHSFDVKKLSEKIMHFPTWVDLKGEDSVPDTVHHVVVPVNPKTDRLWERLGKSHIRTDDVHAKDNTRPGANSPEMWSEAIKILKGEYAVRAIKEHKMDQAIIFCRTKIDCDNLEQYFIQQGGGPDKKGHQFSCVCLHGDRKPHERKQNLERFKKGDVRFLICTDVAARGIDIHGVPYVINVTLPDEKQNYVHRIGRVGRAERMGLAISLVATEKEKVWYHVCSSRGKGCYNTRLKEDGGCTIWYNEMQLLSEIEEHLNCTISQVEPDIKVPVDEFDGKVTYGQKRAAGGGSYKGHVDILAPTVQELAALEKEAQTSFLHLGYLPNQLFRTF | 1.333
4 | SFPQ_HUMAN (protein, UniProt P23246 1-707, looked up) Splicing factor, proline- and …: MSRDRFRSRGGGGGGFHRRGGGGGRGGLHDFRSPPPGMGLNQNRGPMGPGPGQSGPKPPIPPPPPHQQQQQPPPQQPPPQQPPPHQPPPHPQPHQQQQPPPPPQDSSKPVVAQGPGPAPGVGSAPPASSSAPPATPPTSGAPPGSGPGPTPTPPPAVTSAPPGAPPPTPPSSGVPTTPPQAGGPPPPPAAVPGPGPGPKQGPGPGGPKGGKMPGGPKPGGGPGLSTPGGHPKPPHRGGGEPRGGRQHHPPYHQQHHQGPPPGGPGGRSEEKISDSEGFKANLSLLRRPGEKTYTQRCRLFVGNLPADITEDEFKRLFAKYGEPGEVFINKGKGFGFIKLESRALAEIAKAELDDTPMRGRQLRVRFATHAAALSVRNLSPYVSNELLEEAFSQFGPIERAVVIVDDRGRSTGKGIVEFASKPAARKAFERCSEGVFLLTTTPRPVIVEPLEQLDDEDGLPEKLAQKNPMYQKERETPPRFAQHGTFEYEYSQRWKSLDEMEKQQREQVEKNMKDAKDKLESEMEDAYHEHQANLLRQDLMRRQEELRRMEELHNQEMQKRKEMQLRQEEERRRREEEMMIRQREMEEQMRRQREESYSRMGYMDPRERDMRMGGGGAMNMGDPYGSGGQKFPPLGGGGGIGYEANPGVPPATMSGSMMGSDMRTERFGQGGAGPVGGQGPRGMGPGTPAGYGRGREEYEGPNKKPRF | 0.9
5 | XRN2_HUMAN (protein, UniProt Q9H0D6 1-950, looked up) 5'-3' exoribonuclease 2: MGVPAFFRWLSRKYPSIIVNCVEEKPKECNGVKIPVDASKPNPNDVEFDNLYLDMNGIIHPCTHPEDKPAPKNEDEMMVAIFEYIDRLFSIVRPRRLLYMAIDGVAPRAKMNQQRSRRFRASKEGMEAAVEKQRVREEILAKGGFLPPEEIKERFDSNCITPGTEFMDNLAKCLRYYIADRLNNDPGWKNLTVILSDASAPGEGEHKIMDYIRRQRAQPNHDPNTHHCLCGADADLIMLGLATHEPNFTIIREEFKPNKPKPCGLCNQFGHEVKDCEGLPREKKGKHDELADSLPCAEGEFIFLRLNVLREYLERELTMASLPFTFDVERSIDDWVFMCFFVGNDFLPHLPSLEIRENAIDRLVNIYKNVVHKTGGYLTESGYVNLQRVQMIMLAVGEVEDSIFKKRKDDEDSFRRRQKEKRKRMKRDQPAFTPSGILTPHALGSRNSPGSQVASNPRQAAYEMRMQNNSSPSISPNTSFTSDGSPSPLGGIKRKAEDSDSEPEPEDNVRLWEAGWKQRYYKNKFDVDAADEKFRRKVVQSYVEGLCWVLRYYYQGCASWKWYYPFHYAPFASDFEGIADMPSDFEKGTKPFKPLEQLMGVFPAASGNFLPPSWRKLMSDPDSSIIDFYPEDFAIDLNGKKYAWQGVALLPFVDERRLRAALEEVYPDLTPEETRRNSLGGDVLFVGKHHPLHDFILELYQTGSTEPVEVPPELCHGIQGKFSLDEEAILPDQIVCSPVPMLRDLTQNTVVSINFKDPQFAEDYIFKAVMLPGARKPAAVLKPSDWEKSSNGRQWKPQLGFNRDRRPVHLDQAAFRTLGHVMPRGSGTGIYSNAAPPPVTYQGNLYRPLLRGQAQIPKLMSNMRPQDSWRGPPPLFQQQRFDRGVGAEPLLPWNRMLQTQNAAFQPNQYQMLAGPGGYPPRRDDRGGRQGYPREGRKYPLPPPSGRYNWN | 2.5
6 | RBM14_HUMAN (protein, UniProt Q96PK6 1-669, looked up) RNA-binding protein 14: MKIFVGNVDGADTTPEELAALFAPYGTVMSCAVMKQFAFVHMRENAGALRAIEALHGHELRPGRALVVEMSRPRPLNTWKIFVGNVSAACTSQELRSLFERRGRVIECDVVKDYAFVHMEKEADAKAAIAQLNGKEVKGKRINVELSTKGQKKGPGLAVQSGDKTKKPGAGDTAFPGTGGFSATFDYQQAFGNSTGGFDGQARQPTPPFFGRDRSPLRRSPPRASYVAPLTAQPATYRAQPSVSLGAAYRAQPSASLGVGYRTQPMTAQAASYRAQPSVSLGAPYRGQLASPSSQSAAASSLGPYGGAQPSASALSSYGGQAAAASSLNSYGAQGSSLASYGNQPSSYGAQAASSYGVRAAASSYNTQGAASSLGSYGAQAASYGAQSAASSLAYGAQAASYNAQPSASYNAQSAPYAAQQAASYSSQPAAYVAQPATAAAYASQPAAYAAQATTPMAGSYGAQPVVQTQLNSYGAQASMGLSGSYGAQSAAAATGSYGAAAAYGAQPSATLAAPYRTQSSASLAASYAAQQHPQAAASYRGQPGNAYDGAGQPSAAYLSMSQGAVANANSTPPPYERTRLSPPRASYDDPYKKAVAMSKRYGSDRRLAELSDYRRLSESQLSFRRSPTKSSLDYRRLPDAHSDYARYSGSYNDYLRAAQMHSGYQRRM | 2
7 | MTA2_HUMAN (protein, UniProt O94776 1-668, looked up) Metastasis-associated protein …: MAANMYRVGDYVYFENSSSNPYLVRRIEELNKTANGNVEAKVVCLFRRRDISSSLNSLADSNAREFEEESKQPGVSEQQRHQLKHRELFLSRQFESLPATHIRGKCSVTLLNETDILSQYLEKEDCFFYSLVFDPVQKTLLADQGEIRVGCKYQAEIPDRLVEGESDNRNQQKMEMKVWDPDNPLTDRQIDQFLVVARAVGTFARALDCSSSIRQPSLHMSAAAASRDITLFHAMDTLQRNGYDLAKAMSTLVPQGGPVLCRDEMEEWSASEAMLFEEALEKYGKDFNDIRQDFLPWKSLASIVQFYYMWKTTDRYIQQKRLKAAEADSKLKQVYIPTYTKPNPNQIISVGSKPGMNGAGFQKGLTCESCHTTQSAQWYAWGPPNMQCRLCASCWIYWKKYGGLKTPTQLEGATRGTTEPHSRGHLSRPEAQSLSPYTTSANRAKLLAKNRQTFLLQTTKLTRLARRMCRDLLQPRRAARRPYAPINANAIKAECSIRLPKAAKTPLKIHPLVRLPLATIVKDLVAQAPLKPKTPRGTKTPINRNQLSQNRGLGGIMVKRAYETMAGAGVPFSANGRPLASGIRSSSQPAAKRQKLNPADAPNPVVFVATKDTRALRKALTHLEMRRAARRPNLPLKVKPTLIAVRPPVPLPAPSHPASTNEPIVLED | 4
8 | SYAM_HUMAN (protein, UniProt Q5JTZ9 24-985, looked up) Alanine--tRNA ligase, …: GLSHRPLSSEPPAAKASAVRAAFLNFFRDRHGHRLVPSASVRPRGDPSLLFVNAGMNQFKPIFLGTVDPRSEMAGFRRVANSQKCVRAGGHHNDLEDVGRDLSHHTFFEMLGNWAFGGEYFKEEACNMAWELLTQVYGIPEERLWISYFDGDPKAGLDPDLETRDIWLSLGVPASRVLSFGPQENFWEMGDTGPCGPCTEIHYDLAGGVGAPQLVELWNLVFMQHNREADGSLQPLPQRHVDTGMGLERLVAVLQGKHSTYDTDLFSPLLNAIQQGCRAPPYLGRVGVADEGRTDTAYRVVADHIRTLSVCISDGIFPGMSGPPLVLRRILRRAVRFSMEILKAPPGFLGSLVPVVVETLGDAYPELQRNSAQIANLVSEDEAAFLASLERGRRIIDRTLRTLGPSDMFPAEVAWSLSLCGDLGLPLDMVELMLEEKGVQLDSAGLERLAQEEAQHRARQAEPVQKQGLWLDVHALGELQRQGVPPTDDSPKYNYSLRPSGSYEFGTCEAQVLQLYTEDGTAVASVGKGQRCGLLLDRTNFYAEQGGQASDRGYLVRAGQEDVLFPVARAQVCGGFILHEAVAPECLRLGDQVQLHVDEAWRLGCMAKHTATHLLNWALRQTLGPGTEQQGSHLNPEQLRLDVTTQTPLTPEQLRAVENTVQEAVGQDEAVYMEEVPLALTAQVPGLRSLDEVYPDPVRVVSVGVPVAHALDPASQAALQTSVELCCGTHLLRTGAVGDLVIIGDRQLSKGTTRLLAVTGEQAQQARELGQSLAQEVKAATERLSLGSRDVAEALRLSKDIGRLIEAVETAVMPQWQRRELLATVKMLQRRANTAIRKLQMGQAAKKTQELLERHSKGPLIVDTVSAESLSVLVKVVRQLCEQAPSTSVLLLSPQPMGKVLCACQVAQGAMPTFTAEAWALAVCSHMGGKAWGSRVVAQGTGSTTDLEAALSIAQTYALSQL | 0.625
